Values quoted from earlier work as cited in article PMC7922473.

Biological target: PrPC (cellular prion protein) (UniProt P04156)

Q: With “CGGTGGGGCAATTTCTCCTACTGT [PrPC aptamer (PrPC-Apt)]” as the sequence, how does the Kd read?
A: 16 nM
